This note sets out measurements from PMC3360202.

Data set [1] deals with T1, P1MYB (N6His-ZmP1MYB) (Zea mays, UniProt P27898 9-116). As to the kind of experiment: EMSA.
The target in data set [2] is T1, P1MYB (N6His-ZmP1MYB). As to the kind of experiment: competition.
The target in data set [3] is T1, P1MYB (N6His-ZmP1MYB). As to the kind of experiment: EMSA. The source holds these as a separate data set.

T1 sequence (P27898 9-116): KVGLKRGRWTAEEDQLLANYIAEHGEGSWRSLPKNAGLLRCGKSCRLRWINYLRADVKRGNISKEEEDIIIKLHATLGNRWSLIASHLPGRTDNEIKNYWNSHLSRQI

B1: APB1 (dsDNA)
DNA 1: GATCCGGGTCAGTGTACCTACCAACCTTAAACAC
DNA 2: GATCGTGTTTAAGGTTGGTAGGTACACTGACCCG
B1: the binding result in data set [1] was “binds”.

B2: comp1 (dsDNA)
DNA 1: CTATTACTCGTTAGTTGGATTTTAGTTT
DNA 2: AAACTAAAATCCAACTAACGAGTAATAG
As for B2, the binding result in data set [2] is “binds”.

B3: comp2 (dsDNA)
DNA 1: CCAAGTCAAAATCCAACCATTATCTCTTGA
DNA 2: TCAAGAGATAATGGTTGGATTTTGACTTGG
Consider B3, for which the binding result in data set [2] is recorded as “binds”.

B4: FLSbind (dsDNA)
DNA 1: GAGTTTCTGGTAGGTGCGTCGTACGGCCAG
DNA 2: CTGGCCGTACGACGCACCTACCAGAAACTC
Regarding B4, the binding result in data set [3] was “binds”.

B5: comp3 (dsDNA)
DNA 1: TAGATGTGATTCGTTAGGTGTGTTTTTATAA
DNA 2: TTATAAAAACACACCTAACGAATCACATCTA
Take B5: the binding result in data set [2] is on record as “binds”.
